Measurements: IntAct's records for PubMed 20865002

B1: Serine/threonine-protein kinase RAD53 (Saccharomyces cerevisiae), P22216 (parent)
chain: MENITQPTQQSTQATQRFLIEKFSQEQIGENIVCRVICTTGQIPIRDLSADISQVLKEKRSIKKVWTFGRNPACDYHLGNISRLSNKHFQILLGEDGNLLLNDISTNGTWLNGQKVEKNSNQLLSQGDEITVGVGVESDILSLVIFINDKFKQCLEQNKVDRIRSNLKNTSKIASPGLTSSTASSMVANKTGIFKDFSIIDEVVGQGAFATVKKAIERTTGKTFAVKIISKRKVIGNMDGVTRELEVLQKLNHPRIVRLKGFYEDTESYYMVMEFVSGGDLMDFVAAHGAVGEDAGREISRQILTAIKYIHSMGISHRDLKPDNILIEQDDPVLVKITDFGLAKVQGNGSFMKTFCGTLAYVAPEVIRGKDTSVSPDEYEERNEYSSLVDMWSMGCLVYVILTGHLPFSGSTQDQLYKQIGRGSYHEGPLKDFRISEEARDFIDSLLQVDPNNRSTAAKALNHPWIKMSPLGSQSYGDFSQISLSQSLSQQKLLENMDDAQYEFVKAQRKLQMEQQLQEQDQEDQDGKIQGFKIPAHAPIRYTQPKSIEAETREQKLLHSNNTENVKSSKKKGNGRFLTLKPLPDSIIQESLEIQQGVNPFFIGRSEDCNCKIEDNRLSRVHCFIFKKRHAVGKSMYESPAQGLDDIWYCHTGTNVSYLNNNRMIQGTKFLLQDGDEIKIIWDKNNKFVIGFKVEINDTTGLFNEGLGMLQEQRVVLKQTAEEKDLVKKLTQMMAAQRANQPSASSSSMSAKKPPVSDTNNNGNNSVLNDLVESPINANTGNILKRIHSVSLSQSQIDPSKKVKRAKLDQTSKGPENLQFS
partner: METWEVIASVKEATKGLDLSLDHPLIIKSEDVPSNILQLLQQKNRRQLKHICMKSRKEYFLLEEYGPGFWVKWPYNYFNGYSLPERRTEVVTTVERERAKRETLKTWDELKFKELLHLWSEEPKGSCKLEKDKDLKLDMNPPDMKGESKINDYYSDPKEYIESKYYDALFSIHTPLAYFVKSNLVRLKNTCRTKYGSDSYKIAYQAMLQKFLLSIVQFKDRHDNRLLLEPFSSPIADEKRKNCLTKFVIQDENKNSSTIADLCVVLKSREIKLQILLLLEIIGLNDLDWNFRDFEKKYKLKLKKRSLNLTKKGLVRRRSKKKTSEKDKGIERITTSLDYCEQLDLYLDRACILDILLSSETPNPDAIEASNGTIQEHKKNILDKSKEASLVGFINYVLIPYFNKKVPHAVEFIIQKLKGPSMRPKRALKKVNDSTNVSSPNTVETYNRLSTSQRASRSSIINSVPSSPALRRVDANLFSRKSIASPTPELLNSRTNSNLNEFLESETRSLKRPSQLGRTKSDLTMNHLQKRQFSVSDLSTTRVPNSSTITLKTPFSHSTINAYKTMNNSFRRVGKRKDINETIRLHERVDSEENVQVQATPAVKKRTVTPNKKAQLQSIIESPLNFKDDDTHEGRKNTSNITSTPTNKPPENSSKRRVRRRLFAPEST

Variants of: B1
Conditions: with sld3_yeast SLD3, P53135

Row | effect of a mutation on the interaction | Variant
1 | disrupting interaction | K227A
